Legend:
Assay in all cases: analytical SEC
Conditions in all cases: cell culture supernatant of Expi293F cells; parent: est. 72; read off a plot
[1] = target: B/Iowa/06/2017 HA HA2 93A
[2] = target: B/Iowa/06/2017 HA HA1 220N
[3] = target: B/Iowa/06/2017 HA HA1 V217W
[4] = target: B/Iowa/06/2017 HA HA2 S40A
[5] = target: B/Iowa/06/2017 HA HA1 K209Q
[6] = target: B/Iowa/06/2017 HA HA2 E113F
[7] = target: B/Iowa/06/2017 HA HA2 H114I
[8] = target: B/Iowa/06/2017 HA HA1 220F
[9] = target: B/Iowa/06/2017 HA HA2 29P
[10] = target: B/Iowa/06/2017 HA HA1 T218V
[11] = target: B/Iowa/06/2017 HA HA2 Q64F
[12] = target: B/Iowa/06/2017 HA HA2 Q64Y
[13] = target: B/Iowa/06/2017 HA HA2 H114Q
[14] = target: B/Iowa/06/2017 HA HA2 91I
[15] = target: B/Iowa/06/2017 HA HA2 11P
[16] = target: B/Iowa/06/2017 HA HA2 Q64W
[17] = target: B/Iowa/06/2017 HA HA1 K209Y
[18] = target: B/Iowa/06/2017 HA HA2 H22Y
[19] = target: B/Iowa/06/2017 HA HA2 D71P
[20] = target: B/Iowa/06/2017 HA HA2 18P
[21] = target: B/Iowa/06/2017 HA HA2 E113L
[22] = target: B/Iowa/06/2017 HA HA2 15P
[23] = target: B/Iowa/06/2017 HA HA1 259V
[24] = target: B/Iowa/06/2017 HA HA2 111Q
[25] = target: B/Iowa/06/2017 HA HA1 213A
[26] = target: B/Iowa/06/2017 HA HA2 E113Q
[27] = target: B/Iowa/06/2017 HA HA2 S110W
[28] = target: B/Iowa/06/2017 HA HA1 V217K
[29] = target: B/Iowa/06/2017 HA HA2 116R
[30] = target: B/Iowa/06/2017 HA HA2 G68L
[31] = target: B/Iowa/06/2017 HA HA1 220Q
[32] = target: B/Iowa/06/2017 HA HA1 K209F
[33] = target: B/Iowa/06/2017 HA HA2 116W
[34] = target: B/Iowa/06/2017 HA HA1 314M
[35] = target: B/Iowa/06/2017 HA HA1 K209L
[36] = target: B/Iowa/06/2017 HA HA1 K209T
[37] = target: B/Iowa/06/2017 HA HA2 67T
[38] = target: B/Iowa/06/2017 HA HA2 E113W
[39] = target: B/Iowa/06/2017 HA HA2 H114W
[40] = target: B/Iowa/06/2017 HA HA1 K209R
[41] = target: B/Iowa/06/2017 HA HA1 T218N
[42] = target: B/Iowa/06/2017 HA HA2 G68Y
[43] = target: B/Iowa/06/2017 HA HA1 220T
[44] = target: B/Iowa/06/2017 HA HA1 H311M
[45] = target: B/Iowa/06/2017 HA HA2 H114Y
[46] = target: B/Iowa/06/2017 HA HA2 30W
[47] = target: B/Iowa/06/2017 HA HA1 T211V
[48] = target: B/Iowa/06/2017 HA HA2 S110R
[49] = target: B/Iowa/06/2017 HA HA1 K209I
[50] = target: B/Iowa/06/2017 HA HA2 Q64P

## wild-type soluble hemagglutinin (HA) of influenza B/Iowa/06/2017 HA2:93A
[1]
  other: trimer fraction: 87%

## wild-type soluble hemagglutinin (HA) of influenza B/Iowa/06/2017 HA1:220N
[2]
  other: trimer fraction: 71%

## wild-type soluble hemagglutinin (HA) of influenza B/Iowa/06/2017 HA1:V217W
[3]
  other: trimer fraction: 96%

## wild-type soluble hemagglutinin (HA) of influenza B/Iowa/06/2017 HA2:S40A
[4]
  other: trimer fraction: 52%

## wild-type soluble hemagglutinin (HA) of influenza B/Iowa/06/2017 HA1:K209Q
[5]
  other: trimer fraction: 98%

## wild-type soluble hemagglutinin (HA) of influenza B/Iowa/06/2017 HA2:E113F
[6]
  other: trimer fraction: 98%

## wild-type soluble hemagglutinin (HA) of influenza B/Iowa/06/2017 HA2:H114I
[7]
  other: trimer fraction: 55%

## wild-type soluble hemagglutinin (HA) of influenza B/Iowa/06/2017 HA1:220F
[8]
  other: trimer fraction: 85%

## wild-type soluble hemagglutinin (HA) of influenza B/Iowa/06/2017 HA2:29P
[9]
  other: trimer fraction: 77%

## wild-type soluble hemagglutinin (HA) of influenza B/Iowa/06/2017 HA1:T218V
[10]
  other: trimer fraction: 69%

## wild-type soluble hemagglutinin (HA) of influenza B/Iowa/06/2017 HA2:Q64F
[11]
  other: trimer fraction: 96%

## wild-type soluble hemagglutinin (HA) of influenza B/Iowa/06/2017 HA2:Q64Y
[12]
  other: trimer fraction: 98%

## wild-type soluble hemagglutinin (HA) of influenza B/Iowa/06/2017 HA2:H114Q
[13]
  other: trimer fraction: 65%

## wild-type soluble hemagglutinin (HA) of influenza B/Iowa/06/2017 HA2:91I
[14]
  other: trimer fraction: 56%

## wild-type soluble hemagglutinin (HA) of influenza B/Iowa/06/2017 HA2:11P
[15]
  other: trimer fraction: 76%

## wild-type soluble hemagglutinin (HA) of influenza B/Iowa/06/2017 HA2:Q64W
[16]
  other: trimer fraction: 93%

## wild-type soluble hemagglutinin (HA) of influenza B/Iowa/06/2017 HA1:K209Y
[17]
  other: trimer fraction: 92%

## wild-type soluble hemagglutinin (HA) of influenza B/Iowa/06/2017 HA2:H22Y
[18]
  other: trimer fraction: 85%

## wild-type soluble hemagglutinin (HA) of influenza B/Iowa/06/2017 HA2:D71P
[19]
  other: trimer fraction: 88%

## wild-type soluble hemagglutinin (HA) of influenza B/Iowa/06/2017 HA2:18P
[20]
  other: trimer fraction: 57%

## wild-type soluble hemagglutinin (HA) of influenza B/Iowa/06/2017 HA2:E113L
[21]
  other: trimer fraction: 97%

## wild-type soluble hemagglutinin (HA) of influenza B/Iowa/06/2017 HA2:15P
[22]
  other: trimer fraction: 69%

## wild-type soluble hemagglutinin (HA) of influenza B/Iowa/06/2017 HA1:259V
[23]
  other: trimer fraction: 92%

## wild-type soluble hemagglutinin (HA) of influenza B/Iowa/06/2017 HA2:111Q
[24]
  other: trimer fraction: 84%

## wild-type soluble hemagglutinin (HA) of influenza B/Iowa/06/2017 HA1:213A
[25]
  other: trimer fraction: 82%

## wild-type soluble hemagglutinin (HA) of influenza B/Iowa/06/2017 HA2:E113Q
[26]
  other: trimer fraction: 97%

## wild-type soluble hemagglutinin (HA) of influenza B/Iowa/06/2017 HA2:S110W
[27]
  other: trimer fraction: 51%

## wild-type soluble hemagglutinin (HA) of influenza B/Iowa/06/2017 HA1:V217K
[28]
  other: trimer fraction: 91%

## wild-type soluble hemagglutinin (HA) of influenza B/Iowa/06/2017 HA2:116R
[29]
  other: trimer fraction: 86%

## wild-type soluble hemagglutinin (HA) of influenza B/Iowa/06/2017 HA2:G68L
[30]
  other: trimer fraction: 97%

## wild-type soluble hemagglutinin (HA) of influenza B/Iowa/06/2017 HA1:220Q
[31]
  other: trimer fraction: 62%

## wild-type soluble hemagglutinin (HA) of influenza B/Iowa/06/2017 HA1:K209F
[32]
  other: trimer fraction: 96%

## wild-type soluble hemagglutinin (HA) of influenza B/Iowa/06/2017 HA2:116W
[33]
  other: trimer fraction: 90%

## wild-type soluble hemagglutinin (HA) of influenza B/Iowa/06/2017 HA1:314M
[34]
  other: trimer fraction: 49%

## wild-type soluble hemagglutinin (HA) of influenza B/Iowa/06/2017 HA1:K209L
[35]
  other: trimer fraction: 96%

## wild-type soluble hemagglutinin (HA) of influenza B/Iowa/06/2017 HA1:K209T
[36]
  other: trimer fraction: 98%

## wild-type soluble hemagglutinin (HA) of influenza B/Iowa/06/2017 HA2:67T
[37]
  other: trimer fraction: 77%

## wild-type soluble hemagglutinin (HA) of influenza B/Iowa/06/2017 HA2:E113W
[38]
  other: trimer fraction: 100%

## wild-type soluble hemagglutinin (HA) of influenza B/Iowa/06/2017 HA2:H114W
[39]
  other: trimer fraction: 43%

## wild-type soluble hemagglutinin (HA) of influenza B/Iowa/06/2017 HA1:K209R
[40]
  other: trimer fraction: 79%

## wild-type soluble hemagglutinin (HA) of influenza B/Iowa/06/2017 HA1:T218N
[41]
  other: trimer fraction: 89%

## wild-type soluble hemagglutinin (HA) of influenza B/Iowa/06/2017 HA2:G68Y
[42]
  other: trimer fraction: 96%

## wild-type soluble hemagglutinin (HA) of influenza B/Iowa/06/2017 HA1:220T
[43]
  other: trimer fraction: 79%

## wild-type soluble hemagglutinin (HA) of influenza B/Iowa/06/2017 HA1:H311M
[44]
  other: trimer fraction: 68%

## wild-type soluble hemagglutinin (HA) of influenza B/Iowa/06/2017 HA2:H114Y
[45]
  other: trimer fraction: 65%

## wild-type soluble hemagglutinin (HA) of influenza B/Iowa/06/2017 HA2:30W
[46]
  other: trimer fraction: 69%

## wild-type soluble hemagglutinin (HA) of influenza B/Iowa/06/2017 HA1:T211V
[47]
  other: trimer fraction: 78%

## wild-type soluble hemagglutinin (HA) of influenza B/Iowa/06/2017 HA2:S110R
[48]
  other: trimer fraction: 86%

## wild-type soluble hemagglutinin (HA) of influenza B/Iowa/06/2017 HA1:K209I
[49]
  other: trimer fraction: 93%

## wild-type soluble hemagglutinin (HA) of influenza B/Iowa/06/2017 HA2:Q64P
[50]
  other: trimer fraction: 65%
